# Measured values as given in paper PMC12650144 (2025).
# B1: α1s II–III loop C region peptide (residues 720–765) [not stated] / DHPR β1a subunit, full length [mouse] (parent complex)
# chain 1: LKVDEFESNVNEVKDPYPSADFPGDDEEDEPEIPVSPRPRPLAELQ
# chain 2: not shown
# Variants of: B1
# Assay: intrinsic fluorescence binding (fluorescence quenching at 340 nm); read at the last titration point, 9 µM peptide; parent: 0.66; read off a plot
row,response,Variant
1,~0.93,"chain 1 P16A, chain 1 P18A, chain 1 P23A, chain 1 P31A, chain 1 P34A, chain 1 P37A, chain 1 P39A, chain 1 P41A"
